Patent US11202818B2, “Methods and compositions for modulating erythropoiesis” (President and Fellows of Harvard College, priority 2016, dated 2021)
“Also recorded” adds a separate entry of the source.

What was measured:
[1] = tested on: freshly isolated bone marrow; test: Epo-dependent erythroid colony formation (CFU-e/BFU-e) in MethoCult, bone marrow; assay type: cell-based, mouse; conditions: BM progenitors of all stages
Source text: Here, IL-17ra is expressed in the EEP region of the bBM SPRING plot (FIG. 4, Panel a) and its corresponding P2 subset (FIG. 4, Panel n), and to a lesser extent in the CEP/P1 region, in addition to its expression by non-erythroid cells. Both Ryk and mst1r are expressed more selectively, principally within the CEP/P1 region of the erythroid trajectory (FIG. 4, Panels a and n). Wnt5a, MSP and IL-17a were used to stimulate Ryk, mst1r and IL-17ra respectively, and measured their interaction with Epo, an essential erythroid cytokine, using colony formation assays (FIG. 4, Panel c). […]
In bone marrow (BM), 1117ra was expressed by EEPs/P2 and to a lesser extent by CEPs/P1, in addition to non-erythroid cells. […] Ryk, Mst1r and IL-17Ra were stimulated with their respective ligands, Wnt5a, MSP and IL-17a, using Epo-dependent erythroid colony formation as readout (FIG. 15, Panels b and c, FIG. 7). […]
Growth factor perturbations of erythroid colony formation: CFU-e and BFU-e colony formation assays in MethoCult (M3234 STEMCELL Technologies) were carried out on either freshly isolated bone marrow or on embryonic day 13.5 fetal liver cells from Balb/cJ mice. […] Colonies were scored on day 3 (for CFU-e), day 4 (for late BFU-e) and on day 7 (for early BFU-e) following staining with diaminobenzidine, to highlight hemoglobin expression.

[2] = tested on: embryonic day 13.5 fetal liver cells; test: Epo-dependent erythroid colony formation (CFU-e/BFU-e) in MethoCult, fetal liver; assay type: cell-based, mouse
Source text: Here, IL-17ra is expressed in the EEP region of the bBM SPRING plot (FIG. 4, Panel a) and its corresponding P2 subset (FIG. 4, Panel n), and to a lesser extent in the CEP/P1 region, in addition to its expression by non-erythroid cells. Both Ryk and mst1r are expressed more selectively, principally within the CEP/P1 region of the erythroid trajectory (FIG. 4, Panels a and n). Wnt5a, MSP and IL-17a were used to stimulate Ryk, mst1r and IL-17ra respectively, and measured their interaction with Epo, an essential erythroid cytokine, using colony formation assays (FIG. 4, Panel c). Epo concentration in blood ranges from 5-10 mU/ml in the basal state, to 10,000 mU/ml in extremely severe anemia The addition of MSP to FL in the presence of mildly elevated Epo concentrations (50 mU/ml, characteristic of mild anemia) was equivalent to a 10-fold increase in Epo concentration, generating over 2 fold the number of CFUe (day 3 unifocal) colonies. However, in the context of high Epo (>100 mU/ml), the addition of MSP was inhibitory. MSP-mediated inhibition was also seen in earlier FL progenitors and in BM progenitors of all stages. […] In summary, MSP, Wnt5a and IL-17a may provide powerful modulation of pre-ETD erythroid progenitors, in a manner that is highly dependent on their developmental stage and background state of progenitor stimulation (stress v. basal).
In bone marrow (BM), 1117ra was expressed by EEPs/P2 and to a lesser extent by CEPs/P1, in addition to non-erythroid cells. Both Ryk and Mst1r are expressed more selectively, though not exclusively, by EEP and CEP cells (FIG. 15, Panel a, and FIG. 16, Panels a and b). Ryk, Mst1r and IL-17Ra were stimulated with their respective ligands, Wnt5a, MSP and IL-17a, using Epo-dependent erythroid colony formation as readout (FIG. 15, Panels b and c, FIG. 7). Epo concentration in blood varies from ˜10 mU/ml in health, to 10,000 mU/ml in severe anemia. […] By contrast. IL-17a mediated a potentiation of adult BM CFU-e colony formation throughout the Epo dose-response curve, giving rise to 4-fold more colonies at lower Epo (50 mU/ml), and to a ˜50% increase in colony formation when added to maximal levels of Epo (FIG. 15, Panels b. and c).
Growth factor perturbations of erythroid colony formation: CFU-e and BFU-e colony formation assays in MethoCult (M3234 STEMCELL Technologies) were carried out on either freshly isolated bone marrow or on embryonic day 13.5 fetal liver cells from Balb/cJ mice. The following growth factors were tested: MSP/MST1 (R&D systems; CAT #6244-MS-025), Recombinant Human/Mouse Wnt-5a (R&D systems; CAT #645-WN-010) and Recombinant Murine IL17 (IL-17A) (PeproTech; CAT 4210-17). In each experiment, a range of Epo concentrations was tested, with or without added additional growth factors (MSP, Wnt5a or IL-17A) as indicated in FIG. 5 and in Extended Data FIG. 12. In addition to Epo, IL-3 (long/mL) and SCF (50ng/ mL) were added to the MethoCult in the case of BFU-e assays. Each condition was tested in quadruplicates, in at least 2 separate experiments. Colonies were scored on day 3 (for CFU-e), day 4 (for late BFU-e) and on day 7 (for early BFU-e) following staining with diaminobenzidine, to highlight hemoglobin expression.

B1: Wnt5a: Recombinant Human/Mouse Wnt-5a, ligand of Ryk; R&D systems CAT #645-WN-010 (protein)
chain: MAGSAMSSKFFLVALAIFFSFAQVVIEANSWWSLGMNNPVQMSEVYIIGAQPLCSQLAGLSQGQKKLCHLYQDHMQYIGEGAKTGIKECQYQFRHRRWNCSTVDNTSVFGRVMQIGSRETAFTYAVSAAGVVNAMSRACREGELSTCGCSRAARPKDLPRDWLWGGCGDNIDYGYRFAKEFVDARERERIHAKGSYESARILMNLHNNEAGRRTVYNLADVACKCHGVSGSCSLKTCWLQLADFRKVGDALKEKYDSAAAMRLNSRGKLVQVNSRFNSPTTQDLVYIDPSPDYCVRNESTGSLGTQGRLCNKTSEGMDGCELMCCGRGYDQFKTVQTERCHCKFHWCCYVKCKKCTEIVDQFVCK
For B1, the “effect on erythroid colony formation in BM” value [1] was “consistent and potent inhibitor” and the “effect on erythroid colony formation in FL” value ([2]; FL progenitors) was “consistent and potent inhibitor”.

B2: MSP: Macrophage Stimulating Protein, ligand of Mst1r; R&D systems CAT #6244-MS-025 (protein)
chain: MGLWWVTVQPPARRMGWLPLLLLLTQCLGVPGQRSPLNDFQVLRGTELQHLLHAVVPGPWQEDVADAEECAGRCGPLMDCRAFHYNVSSHGCQLLPWTQHSPHTRLRRSGRCDLFQKKDYVRTCIMNNGVGYRGTMATTVGGLPCQAWSHKFPNDHKYTPTLRNGLEENFCRNPDGDPGGPWCYTTDPAVRFQSCGIKSCREAACVWCNGEEYRGAVDRTESGRECQRWDLQHPHQHPFEPGKFLDQGLDDNYCRNPDGSERPWCYTTDPQIEREFCDLPRCGSEAQPRQEATTVSCFRGKGEGYRGTANTTTAGVPCQRWDAQIPHQHRFTPEKYACKDLRENFCRNPDGSEAPWCFTLRPGMRAAFCYQIRRCTDDVRPQDCYHGAGEQYRGTVSKTRKGVQCQRWSAETPHKPQFTFTSEPHAQLEENFCRNPDGDSHGPWCYTMDPRTPFDYCALRRCADDQPPSILDPPDQVQFEKCGKRVDRLDQRRSKLRVVGGHPGNSPWTVSLRNRQGQHFCGGSLVKEQWILTARQCFSSCHMPLTGYEVWLGTLFQNPQHGEPSLQRVPVAKMVCGPSGSQLVLLKLERSVTLNQRVALICLPPEWYVVPPGTKCEIAGWGETKGTGNDTVLNVALLNVISNQECNIKHRGRVRESEMCTEGLLAPVGACEGDYGGPLACFTHNCWVLEGIIIPNRVCARSRWPAVFTRVSVFVDWIHKVMRLG
B2 was tested, and the “effect on erythroid colony formation in BM” value [1] was “inhibition; also recorded: inhibitory effect”, the “effect on fetal liver erythropoiesis at low erythropoietin” value ([2]; FL, Epo 50 mU/ml or less) was “enhance erythropoiesis” and the “equivalent increase in Epo concentration” value ([2]; FL, Epo 50 mU/ml, ligand added) was 10 fold. The “number of CFUe (day 3 unifocal) colonies generated, fold” value ([2]; FL, Epo 50 mU/ml, ligand added) was “over 2 fold”, the “effect on fetal liver erythropoiesis at high Epo” value ([2]; FL, Epo >100 mU/ml) was “inhibitory; also recorded: inhibit erythropoiesis” and the “effect in earlier FL progenitors” value ([2]; FL, earlier progenitors (BFU-e)) was “inhibition”. For the same molecule, the “effect on erythroid colony formation in other contexts” value ([2]; contexts other than FL at Epo 50 mU/ml (FL and BM)) was “inhibitory”.
